Laboratory results: patent US10961303 (UNIVERSITEIT TWENTE, dated 2021)
Positions count from the first letter of the chain named.

B1: VHH-6-D6 (VHH)
VHH: EVQLVESGGGLVQAGGSLRLSCAASGRTFSSYGMGWFRQAPGKERDFVAAVSKSGGSTYYTASVKGRFTVSRDNAKNTVYLQMNSLKPEDTAVYYCAAGRWESGSRPGSTWYGERTYDYWGQGTQVTVSS
notes: Llama VHH selected against BMP6, made in E. coli periplasm; not shown: C-terminal Myc and His tags
B2: VHH-6-C1 (VHH)
VHH: B1 VHH with K53R, S57N, V70I, V79M, P107L
notes: Llama VHH selected against BMP6; not shown: C-terminal Myc and His tags
B3: VHH-6-F2 (VHH)
VHH: EVQLVESGGGFVQAGGSLRLSCAASGSIFSINAMGWYRQAPGKQRELVAAITSGGSTNYADSVKGRFTISRDNAKNTLYLQMNSLKPEDTAVYYCSAVTILLTSGGWGSGNDYWGQGTQVTVSS
notes: as for B2
B4: Glyco-VHH (glycosylated VHH-7-G7 with an N-glycosylation site introduced in loop5, made in yeast) (VHH)
VHH: EVQLVESGGGLVQAGGSLRLSCAASGFTFDDYIIGWFRQAPGKEREGISCISSSDGSTYYADSVTGRFTISSDNANNTVYLQMNSLKPEDTAVYYCAAHAKWPYGTYSFRRCRRASFDSWGQGTQVTVSS
modifications: N-linked glycosyl group at the glycosylation site introduced in loop5 (position not given)
notes: Expressed in S. cerevisiae; also called mutated VHH
B5: VHH-7-B8 (VHH)
VHH: EVQLVESGGGLVRAGGSLRLSCAASGRTFSGYVAGWFRQAPGKEREFVAAISWSGITYYGDSVKGRFTIARDNSKNGVYLQMNSLKPEDTAVYYCGAGKGYYKDYRGYDYWGQGTQVTVSS
notes: Llama VHH selected against BMP7; not shown: C-terminal Myc and His tags
B6: VHH-7-F11 (VHH)
VHH: B5 VHH with R13Q, I51S, A70S, S74A, G77T
notes: Llama VHH selected against BMP7; In SPR coupled to a CM5 chip by NHS chemistry; not shown: C-terminal Myc and His tags
B7: VHH-6-C2 (VHH)
VHH: EVQLVESGGGLVQVGGSLRLSCAASGRTSSMYSMGWFRQAPGKEREFVAAIGWRFGEKYYTNSVKGRFTISRDGAENTNTVYLQMNSLKPDDTAVYYCAADPDDASQYYSDWMKGYGMDYWGKGTLVTVSS
notes: Llama VHH selected against BMP6, cross-reactive with BMP7; not shown: C-terminal Myc and His tags
B8: VHH-6-H1 (VHH)
VHH: EVQLVESGGGLVQAGGSLRLSCAASGSIFSIVSMGWYRQVPGKQRELVAAITSAGSTNYGDSAKGRFTISRDNAKNTVYLQMNSLKPEDTAVYYCNSYGLGYPGDYGIDYWGKGTLVTVSS
notes: Llama VHH selected against BMP6; In SPR coupled to a CM5 chip by NHS chemistry; also called monohead VHH-6-H1; not shown: C-terminal Myc and His tags

How the values were obtained:
[1] = target: T1, BMP-6 (R&D systems cat. #507-BP/CF) (human, UniProt P22004 382-513, limits assumed); experiment: solid phase ELISA, wells coated with ~200 ng BMP6
T1 construct: Bought protein; also called recombinant human BMP-6
T1 sequence (looked up): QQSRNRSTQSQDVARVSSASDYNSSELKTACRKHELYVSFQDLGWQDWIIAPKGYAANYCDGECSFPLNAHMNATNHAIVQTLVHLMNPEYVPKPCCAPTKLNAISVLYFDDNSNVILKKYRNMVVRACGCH
Description: (§1) The indicated amounts of VHHs were incubated with wells coated with ~200 ng BMP6, 200 ng BMP7 or no BMPs (PBS). After several washes, bound VHHs were detected with a rabbit anti-VHH serum and a Donkey anti-rabbit antibody coupled to a peroxidase. The amount of converted OPD (Absorbance at 490 nm; A 490 nm) is proportional to the amount of bound VHHs.
(§2) MaxiSorb plate wells were coated overnight at 4° C., with the antigens in PBS. After blocking of the wells with 4% marvel in PBS, they were incubated with VHH or VHH-fused to M13 phages in the presence of 2% Marvel. The wells were washed with PBS-tween, and bound phages were detected by incubation with a mouse Monoclonal antibody against M13 phage coupled to HRP. Bound VHH were detected by incubation with a rabbit anti-VHH polyclonal serum and a goat anti-rabbit coupled to HRP. The amount of HRP was developed by the addition of OPD. The reactions were stopped by the addition of H_2SO_4 and measured at 490 nm.

[2] = target: T1, BMP-6 (R&D systems cat. #507-BP/CF); experiment: ELISA, 100 ng BMP6 coated, serial dilutions, read at 490 nm
From the text: FIG. 7A-7B show the binding properties of the fusion proteins according to the invention which bind to a growth factor or growth factor inhibitor and to a biomaterial. Fusion proteins according to the invention are composed of the VHH according to the invention binding to a growth factor (indicated in the figure as "VHH-6-F2") and a VHH binding to a biomaterial (indicated in the figure as "MA"). […] The fusion proteins (indicated in the figure as "F") were constructed by genetic fusion of a VHH binding to BMP6 and a VHH binding to hydroxyapatite. To achieve binding to the growth factor BMP6 (FIG. 7A), 100 ng of BMP6 was coated into wells of a maxisorb plate. Serial dilutions of the VHH which binds to BMP6 (VHH-6-F2) and fusion proteins according to the invention (F) were added to the wells. Bound VHHs (VHH-6-F2) and fusion proteins (F) were detected with labelled polyclonal antibodies.

[3] = target: T2, BMP-7 (R&D system cat. #354-BP/CF) (UniProt P18075 293-431); experiment: binding test to cognate antigen, method not described
T2 construct: Bought protein
T2 sequence (looked up): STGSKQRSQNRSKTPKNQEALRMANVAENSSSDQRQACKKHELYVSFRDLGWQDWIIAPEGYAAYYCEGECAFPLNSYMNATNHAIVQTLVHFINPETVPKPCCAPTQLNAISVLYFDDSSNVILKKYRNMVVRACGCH

[4] = target: T2, BMP-7 (R&D system cat. #354-BP/CF); experiment: solid phase ELISA, wells coated with 200 ng BMP7
Description: as §1, §2

[5] = target: T1, BMP-6 (R&D systems cat. #507-BP/CF); experiment: solid phase ELISA, wells coated with 200 ng BMP
Description: as §1, §2

[6] = target: T2, BMP-7 (R&D system cat. #354-BP/CF); experiment: SPR, VHH coupled to CM5 chip, BMP injected
[7] = target: T1, BMP-6 (R&D systems cat. #507-BP/CF); experiment: SPR, VHH coupled to CM5 chip, BMP injected

Binder	binding result [1]	binding result [4]	also measured
B1	binds		
B2	binds		
B3			binding result [2]: binds
B4			binding result [3]: binds
B5		binds	
B6		binds	binding result [5]: no binding
B7	binds	binds	
B8			binding result [6]: binds; binding result [7]: binds
